Source: the supplement of paper PMC9876800

Test system: peptide library, one residue held at a place counted from the S/T acceptor
Assay: relative phosphorylation of the sub-library (ratio to the mean residue at this position); higher = residue favoured
Details: human
Summary of the method: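 Purified recombinant kinases were reacted in 384-well plates with biotinylated degenerate peptide sub-libraries, each having one residue fixed at one position around a central Ser/Thr. The reaction mix contained 50 μM peptide plus 50 μM ATP spiked with γ-32P-ATP and ran for 90 min under kinase-specific conditions. Relative sub-library phosphorylation, taken from densitometry of phosphorimaged streptavidin membrane spots, is a ratio to the mean residue at that position.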

DAPK1, construct: aa1-363, sequence (P53355 1-363, looked up): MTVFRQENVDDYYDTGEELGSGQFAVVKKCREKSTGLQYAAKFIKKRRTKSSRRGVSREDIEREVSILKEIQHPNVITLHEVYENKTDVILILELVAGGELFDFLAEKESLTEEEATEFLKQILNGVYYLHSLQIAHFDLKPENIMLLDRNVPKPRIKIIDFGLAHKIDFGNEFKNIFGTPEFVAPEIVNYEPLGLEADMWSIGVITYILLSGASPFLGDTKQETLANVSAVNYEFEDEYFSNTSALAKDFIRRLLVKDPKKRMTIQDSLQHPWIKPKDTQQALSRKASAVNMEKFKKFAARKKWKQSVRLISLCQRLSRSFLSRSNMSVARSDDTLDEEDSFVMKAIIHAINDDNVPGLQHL
SMG1, construct: Full length, sequence (Q96Q15 whole entry, looked up): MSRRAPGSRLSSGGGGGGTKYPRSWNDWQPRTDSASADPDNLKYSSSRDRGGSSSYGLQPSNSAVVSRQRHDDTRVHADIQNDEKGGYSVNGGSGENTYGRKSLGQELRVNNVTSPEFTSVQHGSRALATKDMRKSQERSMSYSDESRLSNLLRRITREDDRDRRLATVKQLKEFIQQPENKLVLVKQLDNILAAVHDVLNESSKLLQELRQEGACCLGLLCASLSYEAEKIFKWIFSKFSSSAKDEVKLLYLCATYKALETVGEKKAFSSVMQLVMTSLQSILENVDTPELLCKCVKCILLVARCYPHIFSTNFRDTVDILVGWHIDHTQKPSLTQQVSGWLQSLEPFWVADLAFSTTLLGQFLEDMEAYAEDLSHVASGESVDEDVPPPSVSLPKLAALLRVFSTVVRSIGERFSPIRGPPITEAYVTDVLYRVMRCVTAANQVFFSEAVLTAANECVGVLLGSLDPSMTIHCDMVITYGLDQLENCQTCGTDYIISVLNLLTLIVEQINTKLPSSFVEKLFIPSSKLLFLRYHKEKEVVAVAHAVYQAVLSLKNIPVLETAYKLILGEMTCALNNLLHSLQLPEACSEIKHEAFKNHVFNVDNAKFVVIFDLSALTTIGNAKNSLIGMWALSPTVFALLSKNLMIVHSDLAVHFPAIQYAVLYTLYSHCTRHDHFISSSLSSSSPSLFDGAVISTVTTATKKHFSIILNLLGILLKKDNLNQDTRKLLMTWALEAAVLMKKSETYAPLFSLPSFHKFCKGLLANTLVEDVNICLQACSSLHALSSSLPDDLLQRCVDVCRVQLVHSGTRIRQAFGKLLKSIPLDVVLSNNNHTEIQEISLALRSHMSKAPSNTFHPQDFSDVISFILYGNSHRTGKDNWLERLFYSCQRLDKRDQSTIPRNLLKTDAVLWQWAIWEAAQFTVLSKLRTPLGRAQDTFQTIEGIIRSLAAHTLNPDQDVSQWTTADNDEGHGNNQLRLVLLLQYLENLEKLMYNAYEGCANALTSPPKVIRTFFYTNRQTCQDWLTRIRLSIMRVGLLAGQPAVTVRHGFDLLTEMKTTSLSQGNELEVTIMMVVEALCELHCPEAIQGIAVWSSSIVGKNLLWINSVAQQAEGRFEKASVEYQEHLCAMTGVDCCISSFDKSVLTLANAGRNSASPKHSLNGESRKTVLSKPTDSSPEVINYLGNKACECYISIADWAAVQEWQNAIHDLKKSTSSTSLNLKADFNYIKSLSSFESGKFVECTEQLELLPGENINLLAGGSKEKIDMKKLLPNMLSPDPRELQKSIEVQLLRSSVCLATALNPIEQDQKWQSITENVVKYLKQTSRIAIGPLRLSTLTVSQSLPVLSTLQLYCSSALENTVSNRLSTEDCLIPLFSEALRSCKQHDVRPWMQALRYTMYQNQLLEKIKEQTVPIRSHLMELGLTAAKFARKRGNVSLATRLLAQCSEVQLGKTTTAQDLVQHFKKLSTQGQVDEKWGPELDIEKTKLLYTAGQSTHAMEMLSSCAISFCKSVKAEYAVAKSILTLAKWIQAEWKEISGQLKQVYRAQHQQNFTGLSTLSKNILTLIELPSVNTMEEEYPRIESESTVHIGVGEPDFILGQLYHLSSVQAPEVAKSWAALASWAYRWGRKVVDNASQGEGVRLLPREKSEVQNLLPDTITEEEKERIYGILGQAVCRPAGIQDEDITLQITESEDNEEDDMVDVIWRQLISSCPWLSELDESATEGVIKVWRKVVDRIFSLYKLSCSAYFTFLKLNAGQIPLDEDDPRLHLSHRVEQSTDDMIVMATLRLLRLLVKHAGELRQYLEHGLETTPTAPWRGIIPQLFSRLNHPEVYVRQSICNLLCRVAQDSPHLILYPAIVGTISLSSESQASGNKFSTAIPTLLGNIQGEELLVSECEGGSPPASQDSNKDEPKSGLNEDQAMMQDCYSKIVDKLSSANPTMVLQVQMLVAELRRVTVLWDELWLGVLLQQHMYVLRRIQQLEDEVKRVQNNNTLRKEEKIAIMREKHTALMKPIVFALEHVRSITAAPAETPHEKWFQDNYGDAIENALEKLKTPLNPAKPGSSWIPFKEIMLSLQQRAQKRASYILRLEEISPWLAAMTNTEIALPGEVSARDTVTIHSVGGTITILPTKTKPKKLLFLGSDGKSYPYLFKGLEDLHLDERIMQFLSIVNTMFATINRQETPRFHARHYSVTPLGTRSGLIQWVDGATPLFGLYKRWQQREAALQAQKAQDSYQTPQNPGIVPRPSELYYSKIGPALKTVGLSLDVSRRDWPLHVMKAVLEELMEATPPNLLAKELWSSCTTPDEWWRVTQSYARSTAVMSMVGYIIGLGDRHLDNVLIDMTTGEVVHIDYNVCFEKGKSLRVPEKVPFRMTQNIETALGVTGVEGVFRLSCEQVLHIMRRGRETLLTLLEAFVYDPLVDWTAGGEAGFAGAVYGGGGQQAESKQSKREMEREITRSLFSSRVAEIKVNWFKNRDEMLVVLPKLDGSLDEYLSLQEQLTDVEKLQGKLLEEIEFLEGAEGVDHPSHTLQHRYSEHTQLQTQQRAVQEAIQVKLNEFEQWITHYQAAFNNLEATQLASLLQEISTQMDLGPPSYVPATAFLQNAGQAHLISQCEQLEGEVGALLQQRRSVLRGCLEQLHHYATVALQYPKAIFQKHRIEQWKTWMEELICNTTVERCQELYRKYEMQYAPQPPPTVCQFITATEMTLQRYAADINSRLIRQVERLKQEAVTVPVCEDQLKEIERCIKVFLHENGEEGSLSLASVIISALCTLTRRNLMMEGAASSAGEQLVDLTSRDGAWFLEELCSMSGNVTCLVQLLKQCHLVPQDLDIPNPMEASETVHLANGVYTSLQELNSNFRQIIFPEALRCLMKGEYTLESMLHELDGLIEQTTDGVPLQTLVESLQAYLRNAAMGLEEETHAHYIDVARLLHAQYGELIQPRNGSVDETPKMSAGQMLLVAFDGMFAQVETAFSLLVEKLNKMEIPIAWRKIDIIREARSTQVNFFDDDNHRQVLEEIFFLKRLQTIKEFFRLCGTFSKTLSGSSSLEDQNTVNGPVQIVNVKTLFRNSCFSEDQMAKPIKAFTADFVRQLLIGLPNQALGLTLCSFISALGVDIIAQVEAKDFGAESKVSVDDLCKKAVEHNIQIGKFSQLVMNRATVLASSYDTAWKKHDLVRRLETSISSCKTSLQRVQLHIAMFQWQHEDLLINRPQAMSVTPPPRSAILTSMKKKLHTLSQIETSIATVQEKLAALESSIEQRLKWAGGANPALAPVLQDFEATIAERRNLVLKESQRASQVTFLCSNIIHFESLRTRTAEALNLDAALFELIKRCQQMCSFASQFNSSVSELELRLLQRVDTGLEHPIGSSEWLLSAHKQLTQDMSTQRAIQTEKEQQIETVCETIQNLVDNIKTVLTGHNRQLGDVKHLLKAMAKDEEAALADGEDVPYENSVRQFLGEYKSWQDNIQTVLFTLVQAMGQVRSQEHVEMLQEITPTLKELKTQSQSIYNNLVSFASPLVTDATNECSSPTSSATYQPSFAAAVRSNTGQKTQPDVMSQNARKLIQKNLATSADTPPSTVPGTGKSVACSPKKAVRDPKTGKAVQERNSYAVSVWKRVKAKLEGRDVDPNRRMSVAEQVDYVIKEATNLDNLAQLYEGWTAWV
WNK3, construct: aa1-434, sequence (Q9BYP7 1-434, looked up): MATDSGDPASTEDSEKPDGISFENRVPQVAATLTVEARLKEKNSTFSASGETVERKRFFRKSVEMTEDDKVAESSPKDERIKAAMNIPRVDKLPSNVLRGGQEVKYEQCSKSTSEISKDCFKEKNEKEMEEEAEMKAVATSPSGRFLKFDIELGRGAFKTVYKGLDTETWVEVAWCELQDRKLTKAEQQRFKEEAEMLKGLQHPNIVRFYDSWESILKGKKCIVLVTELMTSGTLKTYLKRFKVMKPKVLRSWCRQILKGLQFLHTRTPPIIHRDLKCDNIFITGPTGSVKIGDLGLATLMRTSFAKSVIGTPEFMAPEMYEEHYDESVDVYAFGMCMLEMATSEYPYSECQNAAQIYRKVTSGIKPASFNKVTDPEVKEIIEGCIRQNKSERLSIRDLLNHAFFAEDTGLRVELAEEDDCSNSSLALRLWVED

WNK3, construct: aa1-434 (from UniProt Q9BYP7)
relative phosphorylation
Details | at +1 | at +2 | at +3 | at +4 | at -1 | at -2 | at -3 | at -4 | at -5
A fixed | 0.622 | 0.792 | 0.655 | 0.69 | 0.647 | 1.05 | 0.84 | 0.962 | 0.856
D fixed | 0.416 | 0.7 | 0.675 | 0.609 | 0.462 | 0.409 | 0.519 | 0.598 | 0.749
E fixed | 0.359 | 0.496 | 0.64 | 0.647 | 0.6 | 0.361 | 0.552 | 0.766 | 0.91
F fixed | 1.36 | 1.09 | 1.43 | 1.25 | 0.983 | 0.865 | 0.748 | 0.843 | 1.14
G fixed | 0.784 | 0.939 | 0.674 | 0.771 | 0.605 | 1.41 | 0.728 | 0.853 | 0.972
H fixed | 1.02 | 0.981 | 1.31 | 1.01 | 1.11 | 1.56 | 1.44 | 1.3 | 1.24
I fixed | 1.19 | 1.59 | 1.09 | 1.38 | 0.924 | 0.746 | 0.95 | 0.836 | 0.879
K fixed | 0.825 | 0.772 | 1 | 1 | 1.51 | 1.19 | 1.7 | 1.37 | 1.39
L fixed | 1.61 | 1.5 | 1.32 | 1.29 | 1.26 | 0.8 | 0.862 | 0.858 | 0.753
M fixed | 1.84 | 1.54 | 1.29 | 1.41 | 1.49 | 0.852 | 1.16 | 0.894 | 0.861
N fixed | 0.937 | 0.654 | 0.747 | 0.682 | 0.799 | 0.815 | 0.795 | 0.973 | 0.968
P fixed | 0.278 | 0.356 | 0.441 | 0.626 | 0.428 | 1.24 | 0.794 | 0.8 | 0.702
Q fixed | 1.16 | 0.608 | 0.648 | 0.677 | 1.22 | 0.768 | 1.11 | 0.901 | 0.986
R fixed | 1.16 | 1.64 | 0.994 | 0.959 | 1.53 | 1.85 | 1.87 | 1.77 | 1.69
V fixed | 1.03 | 1.28 | 0.994 | 1.35 | 1.09 | 1.07 | 0.871 | 0.957 | 0.818
W fixed | 1.06 | 0.946 | 1.59 | 1.4 | 1.15 | 1.01 | 1.01 | 1.14 | 0.974
Y fixed | 1.33 | 1.12 | 1.51 | 1.24 | 1.2 | 0.997 | 1.06 | 1.19 | 1.12
pThr fixed | 0.485 | 0.521 | 0.513 | 0.543 | 0.566 | 0.779 | 0.812 | 0.96 | 0.798
pTyr fixed | 0.566 | 0.549 | 0.663 | 0.56 | 0.893 | 0.555 | 0.741 | 0.842 | 0.859

SMG1, construct: Full length (from UniProt Q96Q15)
relative phosphorylation
Details | at +1 | at +2 | at +3 | at +4 | at -1 | at -2 | at -3 | at -4 | at -5
A fixed | 0.603 | 0.979 | 1.02 | 0.957 | 0.855 | 1.26 | 1.21 | 1.23 | 1.18
D fixed | 0.453 | 1.12 | 1.33 | 0.91 | 0.348 | 0.521 | 0.669 | 0.674 | 0.649
E fixed | 0.336 | 0.964 | 1.15 | 0.799 | 0.298 | 0.645 | 0.836 | 0.829 | 0.693
F fixed | 0.533 | 0.966 | 1.12 | 1.28 | 1.35 | 1.25 | 1.44 | 1.3 | 1.39
G fixed | 0.603 | 0.924 | 0.974 | 0.933 | 0.646 | 1.29 | 1.03 | 1.26 | 1.28
H fixed | 0.522 | 0.991 | 0.858 | 1.06 | 0.939 | 1.04 | 0.972 | 1.02 | 1.07
I fixed | 0.539 | 0.841 | 0.899 | 0.883 | 0.662 | 1.08 | 0.874 | 0.926 | 0.924
K fixed | 0.581 | 0.711 | 0.62 | 0.779 | 0.725 | 0.698 | 0.604 | 0.614 | 0.67
L fixed | 0.739 | 0.889 | 0.853 | 0.943 | 4.37 | 1.2 | 0.965 | 1.01 | 0.958
M fixed | 0.55 | 1.03 | 1.07 | 1 | 2.27 | 1.26 | 1.33 | 1.08 | 1.03
N fixed | 0.841 | 0.832 | 0.854 | 0.806 | 0.722 | 0.82 | 0.766 | 0.73 | 0.701
P fixed | 0.567 | 1.39 | 0.996 | 1.12 | 0.558 | 0.807 | 0.817 | 0.855 | 1
Q fixed | 7.53 | 1.13 | 0.832 | 0.867 | 0.822 | 0.877 | 0.83 | 0.766 | 0.729
R fixed | 0.875 | 0.818 | 0.931 | 0.85 | 0.615 | 0.751 | 0.687 | 0.677 | 0.781
V fixed | 0.567 | 0.946 | 0.913 | 0.881 | 0.474 | 0.996 | 0.912 | 0.93 | 0.964
W fixed | 0.545 | 1.26 | 1.31 | 1.53 | 0.53 | 1.08 | 1.36 | 1.55 | 1.6
Y fixed | 0.613 | 1.2 | 1.28 | 1.39 | 0.823 | 1.42 | 1.7 | 1.55 | 1.38
pThr fixed | 0.386 | 1.04 | 1.82 | 1.03 | 0.365 | 0.661 | 0.999 | 1.11 | 1.1
pTyr fixed | 0.416 | 0.704 | 1.06 | 1.41 | 0.539 | 1.27 | 1.71 | 1.65 | 1.47

DAPK1, construct: aa1-363 (from UniProt P53355)
relative phosphorylation
Details | at +1 | at +2 | at +3 | at +4 | at -1 | at -2 | at -3 | at -4 | at -5
A fixed | 0.752 | 0.793 | 0.813 | 0.817 | 0.743 | 1.27 | 0.626 | 0.975 | 0.91
D fixed | 1.81 | 0.767 | 0.98 | 0.853 | 0.83 | 0.333 | 0.336 | 0.665 | 0.58
E fixed | 1.76 | 0.953 | 0.979 | 0.857 | 0.63 | 0.347 | 0.374 | 0.82 | 0.622
F fixed | 0.867 | 0.998 | 0.999 | 1.13 | 0.771 | 0.4 | 0.45 | 0.844 | 0.773
G fixed | 1.06 | 0.651 | 0.978 | 0.935 | 0.847 | 0.662 | 0.62 | 0.937 | 1.03
H fixed | 0.714 | 0.936 | 1 | 1.45 | 1.24 | 0.987 | 0.754 | 1 | 1.05
I fixed | 0.877 | 1.05 | 1.95 | 0.913 | 0.701 | 0.308 | 0.418 | 0.871 | 0.955
K fixed | 0.476 | 0.717 | 0.665 | 0.72 | 1.35 | 1.38 | 2.1 | 1.63 | 1.67
L fixed | 0.792 | 1.92 | 1.39 | 0.777 | 1.18 | 0.354 | 0.385 | 0.796 | 1.02
M fixed | 1.12 | 1.71 | 1.04 | 1.01 | 1.14 | 0.387 | 0.421 | 0.959 | 0.954
N fixed | 1.47 | 0.871 | 0.818 | 0.985 | 1.4 | 0.672 | 0.483 | 0.93 | 0.842
P fixed | 0.353 | 0.724 | 0.693 | 0.994 | 1.04 | 0.338 | 0.558 | 0.677 | 0.756
Q fixed | 2.1 | 1.03 | 0.767 | 0.816 | 1.06 | 0.742 | 0.632 | 1.03 | 0.828
R fixed | 0.659 | 1.06 | 0.832 | 0.912 | 1.64 | 7.29 | 7.46 | 2.31 | 2.36
V fixed | 0.821 | 0.912 | 1.3 | 0.792 | 0.691 | 0.345 | 0.297 | 0.77 | 0.722
W fixed | 0.698 | 0.827 | 0.856 | 1.7 | 0.695 | 0.732 | 0.592 | 0.856 | 0.73
Y fixed | 0.68 | 1.08 | 0.936 | 1.33 | 1.05 | 0.46 | 0.502 | 0.928 | 1.2
pThr fixed | 3.07 | 1.42 | 1.26 | 1.87 | 0.889 | 0.618 | 0.741 | 0.996 | 1.17
pTyr fixed | 1.87 | 1.41 | 2.43 | 1.56 | 1.33 | 0.71 | 0.721 | 0.94 | 1.15

DYRK2, construct: Full length (from UniProt Q92630)
relative phosphorylation
Details | at +1 | at +2 | at +3 | at +4 | at -1 | at -2 | at -3 | at -4 | at -5
A fixed | 0.832 | 1.06 | 0.927 | 0.956 | 1.27 | 2.04 | 0.9 | 0.971 | 1.08
D fixed | 0.164 | 1.08 | 0.82 | 1.14 | 0.655 | 0.308 | 0.592 | 0.84 | 0.894
E fixed | 0.214 | 0.977 | 0.792 | 0.8 | 0.788 | 0.307 | 0.529 | 0.922 | 0.857
F fixed | 0.209 | 0.977 | 0.929 | 1.23 | 0.7 | 0.518 | 0.457 | 0.843 | 1.03
G fixed | 0.62 | 0.756 | 1.59 | 1.17 | 1.17 | 0.984 | 1.78 | 1.05 | 1.16
H fixed | 0.227 | 0.923 | 0.915 | 0.967 | 0.948 | 0.562 | 0.796 | 0.894 | 1.14
I fixed | 0.368 | 1.26 | 0.8 | 0.996 | 0.702 | 0.897 | 0.571 | 0.843 | 0.833
K fixed | 0.357 | 0.502 | 0.548 | 0.832 | 1.12 | 0.495 | 0.756 | 0.859 | 0.859
L fixed | 0.307 | 1.45 | 1.1 | 0.987 | 0.823 | 0.98 | 0.635 | 0.861 | 0.878
M fixed | 0.314 | 1.48 | 1.05 | 1.22 | 1.16 | 0.915 | 0.608 | 0.969 | 0.843
N fixed | 0.304 | 1.08 | 0.838 | 0.928 | 0.877 | 0.781 | 0.691 | 0.771 | 0.846
P fixed | 9.47 | 0.703 | 2.79 | 1.16 | 1.68 | 2.97 | 0.988 | 1.26 | 0.99
Q fixed | 0.466 | 1.1 | 0.893 | 0.992 | 1.05 | 0.597 | 0.735 | 0.826 | 0.819
R fixed | 1.99 | 0.629 | 0.707 | 0.778 | 1.5 | 2.44 | 5.23 | 2.46 | 1.69
V fixed | 0.772 | 1.23 | 0.682 | 0.918 | 0.898 | 1.28 | 0.573 | 0.781 | 0.833
W fixed | 0.193 | 0.958 | 0.902 | 0.984 | 0.627 | 0.487 | 0.571 | 0.997 | 1.01
Y fixed | 0.195 | 0.829 | 0.72 | 0.932 | 1.04 | 0.444 | 0.588 | 0.853 | 1.24
pThr fixed | 0.399 | 1.77 | 0.745 | 1.28 | 0.415 | 0.56 | 0.647 | 1.03 | 1.03
pTyr fixed | 0.476 | 0.786 | 0.709 | 0.928 | 0.953 | 0.452 | 0.79 | 1.19 | 1.19
